The source of these data is patent US20190367612A1 (Daiichi Sankyo, published 2019).

Usually EC50 (read off the curve) stands for the concentration needed to bring the measured effect to its halfway point. The term Kd denotes the equilibrium constant for the complex coming apart.

One assay addresses T1, mouse GPRC5D (mouse, UniProt Q9JIL6 1-344).
T1 construct: whole, on cells
T1 sequence (looked up): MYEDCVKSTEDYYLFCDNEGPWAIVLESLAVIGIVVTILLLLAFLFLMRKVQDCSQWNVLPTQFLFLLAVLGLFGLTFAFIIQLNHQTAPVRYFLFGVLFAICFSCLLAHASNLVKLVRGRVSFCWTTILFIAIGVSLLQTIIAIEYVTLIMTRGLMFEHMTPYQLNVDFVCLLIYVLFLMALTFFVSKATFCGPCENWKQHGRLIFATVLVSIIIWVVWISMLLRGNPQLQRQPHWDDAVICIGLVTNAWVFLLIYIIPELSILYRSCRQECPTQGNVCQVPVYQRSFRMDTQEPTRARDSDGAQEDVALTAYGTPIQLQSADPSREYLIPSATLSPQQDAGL
As to the kind of experiment: flow cytometry, in the same way as in Example 5)-2. For orientation: Flow cytometry measures light scatter and fluorescence of single cells or particles in a stream.

Assay [1] concerns the target T2, human GPRC5D (human, UniProt Q9NZD1 1-345).
T2 construct: whole, on cells; also called hGPRC5D; G-protein coupled receptor family C group 5 member D
Description: flow cytometry on A4/Fuk cells (endogenous human GPRC5D), Penta-His Alexa Fluor 488 detection, rMFI = MFI minus sample without antibody. The method, then: Lymphoma cell line A4/Fuk cells (JCRB Cell Bank) were adjusted to an appropriate concentration with PBS containing 5% FBS. LIVE/DEAD Fixable Near-IR Dead Cell Stain Kit was added to the cells, which were then left standing at 4° C. for 30 minutes. The cells were washed twice with PBS containing 5% FBS, then adjusted to a concentration of 1×10⁶ cells/mL with PBS containing 5% FBS, inoculated in an amount of 100 μL/well to a 96-well U-bottomed microplate, and centrifuged to remove a supernatant. Each anti-GPRC5D-anti-CD3 bispecific molecule (C2037-C3E7034 to C3022-C3E7036 prepared in Example 12) diluted with PBS containing 5% FBS were added thereto in an amount of 100 μL/well, and the plate was left standing at 4° C. for 60 minutes. The cells were washed twice with PBS containing 5% FBS. Then, Penta-His Alexa Fluor 488 diluted with PBS containing 5% FBS was added thereto in an amount of 30 μL/well, and the plate was left standing at 4° C. for 30 minutes. The cells were washed twice with PBS containing 5% FBS and then resuspended in PBS containing 5% FBS, followed by detection using a flow cytometer (FACSCanto™ II). The data was analyzed using Flowjo. The mean fluorescence intensity (MFI) of Alexa Fluor 488 in a fraction free from dead cells was calculated. The MFI value of the antibody-unsupplemented sample was subtracted from the MFI value of the antibody-supplemented sample to calculate a relative value of MFI (rMFI).

The next assay has as its target T3, human CD3 (human, UniProt P07766 23-207).
T3 construct: CD3 complex on human PBMC; also called human CD3 (PBMC); human CD3-expressing cells
As to the kind of experiment: flow cytometry on human PBMC (dead and CD19-positive cells excluded), Penta-His Alexa Fluor 488 detection, rMFI = MFI minus sample without antibody. The method, then: Commercially available human PBMC (Cellular Technology Limited) was adjusted to an appropriate concentration with PBS containing 5% FBS. LIVE/DEAD Fixable Near-IR Dead Cell Stain Kit (Thermo Fisher Scientific Inc.) and an anti-CD19 antibody (Beckman Coulter Inc.) were added to the cells, which were then left standing at 4° C. for 30 minutes. The cells were washed twice with PBS containing 5% FBS, then adjusted to a concentration of 1×10⁶ cells/mL with PBS containing 5% FBS, inoculated in an amount of 100 μL/well to a 96-well U-bottomed microplate, and centrifuged to remove a supernatant. Each anti-GPRC5D-anti-CD3 bispecific molecule (C2037-C3E7034 to C3022-C3E7036 prepared in Example 12) diluted with PBS containing 5% FBS were added thereto in an amount of 100 μL/well, and the plate was left standing at 4° C. for 60 minutes. The cells were washed twice with PBS containing 5% FBS. Then, Penta-His Alexa Fluor 488 (Qiagen N.V.) diluted with PBS containing 5% FBS was added thereto in an amount of 30 μL/well, and the plate was left standing at 4° C. for 30 minutes. […] The data was analyzed using Flowjo (Tree Star, Inc.). The mean fluorescence intensity (MFI) of Alexa Fluor 488 in a fraction free from dead cells and CD19-positive cells was calculated. […]

The target of assay [2] is T2, human GPRC5D. As to the kind of experiment: flow cytometry on KMS-34 cells (endogenous human GPRC5D), anti-FLAG antibody and Alexa 488 anti-mouse IgG detection. Here is the method: The KMS-34 cells were recovered by centrifugation, washed twice with a FACS buffer (PBS containing 0.5% BSA and 2 mM EDTA, pH 7.4), and then suspended in the same solution as above. The C2037, C3048, C3015 or C3022 scFv was added to the obtained cell suspension, and the mixture was left standing at 4° C. for 2 hours. After washing twice with a FACS buffer, the cells were suspended by the addition of an anti-FLAG antibody (Sigma-Aldrich Corp.), and the mixture was further left standing at 4° C. for 1 hour. After washing twice with a FACS buffer, the cells were suspended by the addition of Alexa 488-labeled anti-mouse IgG antibody (Jackson ImmunoResearch Laboratories, Inc.), and the mixture was further left standing at 4° C. for 1 hour. After washing twice with a FACS buffer, the cells were fixed in 1% PFA (prepared from a 32% paraformaldehyde solution (Electron Microscopy Sciences)), followed by detection using a flow cytometer (FACSCanto™ II; Becton, Dickinson and Company). The data was analyzed using Flowjo (Tree Star, Inc.).

Assay [3] concerns the target T4, human GPRC5D amino-terminal peptide MYKDCIESTGDYFLLCDAEGPWGIILE-K(Biotin)-NH2, having an intramolecular … (human, C-terminal lysine carrying biotin, C-terminal amide; intramolecularly formed disulfide bond).
T4 construct: Peptide Institute synthetic peptide; also called amino-terminal peptide of biotinylated human GPRC5D (disulfide bond present)
T4 peptide: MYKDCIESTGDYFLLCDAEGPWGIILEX
Description: SPR (Biacore T200), kinetic analysis: biotinylated amino-terminal peptide of human GPRC5D on Sensor Chip CAP, scFv as analyte. The method, then:
The binding activity of the anti-GPRC5D antibodies against the amino-terminal peptide of human GPRC5D was tested by SPR using Biacore T200. The amino-terminal peptide of biotinylated human GPRC5D diluted to 2 nM with HBS-EP+ (manufactured by GE Healthcare Bio-Sciences Corp.) was immobilized on Sensor Chip CAP (manufactured by GE Healthcare Bio-Sciences Corp.) by contact at a rate of 10 μL/min for 180 seconds. Then, Kd was calculated by kinetic analysis using a plurality of concentrations of each scFv diluted with HBS-EP+ as analytes.
On the technique in general: SPR reads the build-up and loss of mass on a sensor chip optically.

Assay [4] addresses T5, amino-terminal peptide of cynomolgus monkey GPRC5D …(Biotin)-NH2 (cynomolgus monkey, C-terminal lysine carrying biotin, C-terminal amide).
T5 construct: also called amino-terminal peptide of biotinylated cynomolgus monkey GPRC5D
T5 peptide: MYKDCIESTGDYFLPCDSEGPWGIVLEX
Description: ELISA, chemiluminescence: biotinylated amino-terminal peptide of cynomolgus monkey GPRC5D on NeutrAvidin, scFv detected with HRP anti-FLAG antibody. The method, then:
NeutrAvidin diluted to 1 μg/mL with PBS was added in an amount of 50 μL/well to 96-well Maxi-sorp plate (Black, Nunc/Thermo Fisher Scientific Inc.), and the plate was left standing overnight at 4° C. for immobilization. After washing three times with an ELISA buffer, the amino-terminal peptide of the biotinylated human or cynomolgus monkey GPRC5D (used in Example 10)-1) diluted to 1 μg/mL with PBS was added thereto, and the plate was shaken at room temperature for 1 hour. After washing three times with an ELISA buffer, the plate was blocked with Blocker Casein and washed three times with an ELISA buffer. Then, the C2037, C3048, C3015, or C3022 scFv was added to the plate and reacted at room temperature for 2 hours. After washing three times with an ELISA buffer, a horseradish peroxidase (HRP)-labeled anti-FLAG antibody diluted 5000-fold with an ELISA buffer was added thereto in an amount of 50 μL/well and reacted at room temperature for 1 hour. After washing five times with an ELISA buffer, SuperSignal Pico ELISA Chemiluminescent substrate was added. After 10 minutes, the chemiluminescence was measured using a plate reader.

T3 sequence (P07766 23-207 limits assumed): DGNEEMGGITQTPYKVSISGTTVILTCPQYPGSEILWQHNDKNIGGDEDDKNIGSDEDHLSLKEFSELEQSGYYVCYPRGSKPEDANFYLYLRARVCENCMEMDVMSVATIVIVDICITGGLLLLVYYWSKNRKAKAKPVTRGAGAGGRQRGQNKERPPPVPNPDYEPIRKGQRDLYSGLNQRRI

B1: human chimeric 2A4 (antibody, human IgG1, V domains shown)
VH: QVQLQQSGAELAKPGTSVKLSCKASGYTFTSYYIYWVKQRPGQGLEWIGYVYPGYGGTYYSDKFKGKATFTADTSSSTAYMLLGSLTPEDSAYYFCARRKGIIRGPGYFDYWGQGVMVTVSS
VL: DIQMTQSPASLSASLGETVSIECLASEGISNSLAWYQQKPGKSPQLLIYGASSLQDGVPSRFSGSGSGTQYSLKISGMQPEDEGLYYCQQGYKYPPTFGGGTKLELKR
notes: Human IgG1 / kappa constant regions
As for B1, in the assay with mouse GPRC5D, the binding result is “no binding”.

B2: anti-GPRC5D-anti-CD3 bispecific molecule C3048-C3E7034 (bispecific antibody)
scFv: GQVQLVQSGAEVKKPGSSVKVSCKASGGTFSRYAISWVRQAPGQGLEWMGGIIPIFGTANYAQKFQGRVTITADQSTRTAYMDLGRLRSEDTAVYYCALEGFRDSLKRNPFDIWGQGTMVTVSSGGGGSGGGGSGGGGSQSVVTQPPSVSAAPGQKVTISCSGGTTNIGSNYVSWYQQLPGTAPKFLMYENNKRPSGIPDRFSGSKSGTSATLAITGLQTGDEATYYCSTWDSSLNTGLFGGGTKLTVLGGGGSEVQLVESGGGLVQPGGSLRLSCAASGVTFNYYGMSWIRQAPGKGLEWVASITNSGGRIYYPDSVKGRFTISRENTQKTLYLQMNSLRAEDTAVYYCTLDGRDGWVAYWGQGTLVTVSSGGGGSGGGGSGGGGSNFMLTQPHSVSESPGKTVTISCKRNTGNIGSNYVNWYQQHEGSSPTTIIYRDDKRPDGVSDRFSGSIDRSSKSASLTISNLKTEDEADYFCQSYSSGFIFGGGTKLTVLGAAAGAGGDYKDDDDKGAAAHHHHHH
notes: Tandem scFv
In the case of B2, in the assay with human GPRC5D [1], the binding result is listed as “binds”. In the assay with human CD3, the concentration giving a half-maximal response (EC50 (read off the curve)) was approximately 0.0004 µM.

B3: human antibody C3022 scFv (scFv)
scFv: QVQLVQSGAEVKKPGASVKVSCKASGYTFTGYYMHWVRQAPGQGLEWMGRINPNSGGTNYAQKFQGRVTMTRDTSISTAYMELSGLRSDDTAVYYCASGSVRHPWGQGTLVTVSSGGGGSGGGGSGGGGSQPVLTQPPSASGTPGQRVTISCSGSRSNIGGNIVSWYQQFPGTAPRLLTYADNQRPSGVPDRFSGSKSGTSASLAISGLQSEDEADYYCAAWDDSLNGVVFGGGTKLTVL
notes: also called C3022 antibody scFv; not shown: FLAG and His tags at the carboxyl terminus
On to B3, for which the binding result (with human GPRC5D [2]; in assay [4]) was “binds” each time. Moreover, in assay [3], the Kd was 0.095 µM.
